Laboratory results reported in patent publication US20120093811A1 (published 2012).
Blank lines part the entries; values can stand above or below the binder they belong to.

Assays:
[1] = target: T1, Source 1 VEGF-D, mature dimeric recombinant human VEGF-D (CSIRO) (human, UniProt O43915 89-205); experiment: SPR Protocol A, KD against that of Ig-1A
T1 construct: Whole entry named; also called Source 1 VEGF-D dimer; VEGF-D dimer
T1 sequence: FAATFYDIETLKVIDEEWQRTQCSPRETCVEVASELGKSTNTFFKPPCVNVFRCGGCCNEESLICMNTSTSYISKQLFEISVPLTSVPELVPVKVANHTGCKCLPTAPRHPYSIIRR
Procedure: (§1) Protocol A: The first assay format, Protocol A, used an assay system where IgGs were captured on a biosensor chip surface using an anti-human IgG (Fc) antibody and the Source 1 VEGF-D dimer run over the chip as the analyte in solution. This ensured that all IgG molecules were presented to the antigen in an active orientation.
(§2) The SPR protocol was slightly modified to compensate for the dimeric nature of the VEGF-D. Ig-1A or IgG variants were analyzed using an anti-human capture kit as described for Anti-human IgG (Fc) capture above, except that 1000 RU of the IgG or IgG variant was captured on the anti-human chip surface. […] The kinetics generated using this approach are accurate within the experimental parameters set. This standard assay protocol is best suited to studying 1:1 interactions and thus, may not be ideal for analyzing binding between the IgG variants and the VEGF-D dimer. In light of this, Protocol B was also used.

[2] = target: T1, Source 1 VEGF-D, mature dimeric …; experiment: SPR Protocol B, KD against that of Ig-1A
Procedure: (§3) Protocol B: In the second assay format, Protocol B, the orientation of the IgGs and the VEGF-D antigen was reversed relative to Protocol A. The Source 1 VEGF-D dimer was immobilized directly on the chip surface by amine coupling and the murine anti-VEGF-D monoclonal antibody, Ig-1A or IgG variants flowed over this surface as analytes at concentrations of 4 nM, 1.33 nM, and 0.44 nM. This protocol allowed avidity effects to be controlled by reducing the density of dimeric VEGF-D immobilized on the chip and in effect reduce the bivalent binding properties of the system being analyzed.
(§4) All four flow cells on a CM5 chip were activated for 7 min at 25° C. using a mixture of NHS.EDC. Flow cell one was used as an unmodified (activated and blocked) reference against flow cells 2-4. Source 1 VEGF-D dimer was diluted to 1-3 μg/ml into 10 mM sodium acetate, pH 4, and injected over three surfaces for different lengths of time to achieve low ligand densities of 10, 15 and 20 RU to minimize avidity effects of the IgG. All surfaces were blocked for 7 min with ethanolamine (1M, pH 8.2) and pre-conditioned using five 10 s injections of 100 mM H₃PO₄; 1M NaCl. Immobilization steps were carried out at a flow rate of 30 μl/min using HBS-N running buffer.
(§5) All IgG binding experiments were performed at 25° C. using HBS-EP+ running buffer. Analytes (murine reference anti-VEGF-D monoclonal antibody and humanized variants) were injected for 200 s at a flow rate of 70 μl/min and dissociation monitored for 250 s. The antigen surfaces were regenerated with a 10 s pulse of 100 mM H₃PO₄; 1M NaCl. Analyte concentrations used for murine and humanized variants were 4 nM, 1.33 nM, and 0.44 nM. Data was processed using the reference surface and double referencing from blank injections. Binding constants for the IgG/antigen interactions were determined from the three antigen surfaces globally fitted to a 1:1 interaction model. Refractive index parameter was constant (RI=0).

[3] = target: T1, Source 1 VEGF-D, mature dimeric …; experiment: SPR Protocol B, KD against that of the murine antibody
Procedure: as §3
All four flow cells on a CM5 chip were activated for 7 min at 25° C. using a mixture of NHS.EDC. Flow cell one was used as an unmodified (activated and blocked) reference against flow cells 2-4. […]
All IgG binding experiments were performed at 25° C. using HBS-EP+ running buffer. Analytes (murine reference anti-VEGF-D monoclonal antibody and humanized variants) were injected for 200 s at a flow rate of 70 μl/min and dissociation monitored for 250 s. […] Binding constants for the IgG/antigen interactions were determined from the three antigen surfaces globally fitted to a 1:1 interaction model. […]

[4] = target: T2, Source 2 VEGF-D, purified recombinant human VEGF-D monomer (R&D Systems, Catalog Number 622-VD/CF) (human, UniProt O43915 93-201); experiment: cell-based or functional assay
T2 sequence: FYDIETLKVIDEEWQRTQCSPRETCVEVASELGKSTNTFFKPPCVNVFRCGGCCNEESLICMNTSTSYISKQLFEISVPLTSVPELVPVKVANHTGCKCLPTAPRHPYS

[5] = target: T1, Source 1 VEGF-D, mature dimeric …; experiment: cell-based or functional assay
[6] = target: T1, Source 1 VEGF-D, mature dimeric …; experiment: SPR Protocol A: IgG captured by anti-human Fc, VEGF-D dimer as analyte
Procedure: as §1, §2

[7] = target: T1, Source 1 VEGF-D, mature dimeric …; experiment: SPR Protocol A, KD against that of the murine antibody
[8] = target: T1, Source 1 VEGF-D, mature dimeric …; experiment: SPR Protocol B: VEGF-D dimer amine-coupled, IgG as analyte
Procedure: as §3, §4, §5

[9] = target: T2, Source 2 VEGF-D, purified recombinant …; experiment: SPR, IgG captured by anti-human IgG (Fc), Source 2 VEGF-D as analyte
[10] = target: T1, Source 1 VEGF-D, mature dimeric …; experiment: SPR; row labelled Protocol A (IgG captured by anti-human Fc, VEGF-D dimer as analyte); Protocol A line of Table 6
Procedure: as §1, §2

[11] = target: T1, Source 1 VEGF-D, mature dimeric …; experiment: SPR, labelled Protocol B in this table
[12] = target: T2, Source 2 VEGF-D, purified recombinant …; experiment: SPR, IgG captured by anti-human IgG (Fc), Source 2 VEGF-D monomer as analyte
[13] = target: T1, Source 1 VEGF-D, mature dimeric …; experiment: SPR, labelled Protocol A in this table; Protocol B by paragraph 399 and Table 7A, though printed as Protocol A

Fold-improvement with respect to Ig-1A [1]: 5.5 fold
Fold-improvement with respect to Ig-1A [2]: 4.4 fold
fold improvement over the original murine anti-VEGF-D monoclonal antibody [3]: 11.5 fold
rank in the VEGFR-3-Ba/F3 bioassay [4]: 5 rank
rank in the VEGFR-3-Ba/F3 bioassay [5]: 7 rank
Kd [6]: 0.127 nM
koff [6]: 5.8e-05 s⁻¹
kon [6]: 460000 M⁻¹ s⁻¹
fold improvement over the original murine anti-VEGF-D monoclonal antibody [7]: 23.6 fold
Kd [8]: 0.4 nM
koff [8]: 0.0019 s⁻¹
kon [8]: 4.8e+06 M⁻¹ s⁻¹
B1: humanized IgG antibody derived from clone HU75 (antibody, V domains shown)
VH: QVQLVQSGAEVKQPGASVKVSCKASGYTFTGYNMYWVRQAPGQGLEWMGYIDPYNGDTTYNQKFKGRVTMTTDTSTSTAYMKLRSLRSDDTAVYYCARTSYYGGMDYWGRGTLVTVAS
VL: DIVMTQTPLSGPVTLGQPASISCRSSQSLVHSNGNTYLHWLQQRPGQPPRLLIYKVSNRFSGVPDRFSGSGAGTDFTLKISRVEAEDVGVYYCSQSTHVPRTFGRGTKLEIKR
notes: IgG

Kd [9]: 16.1 nM
koff [9]: 0.00901 s⁻¹
kon [9]: 494000 M⁻¹ s⁻¹
Kd [6]: 0.696 nM
koff [6]: 0.00049 s⁻¹
kon [6]: 710000 M⁻¹ s⁻¹
koff [10]: 0.00059 s⁻¹
kon [10]: 680000 M⁻¹ s⁻¹
Kd [11]: 0.7 nM
Kd [8]: 1.8 nM
koff [8]: 0.0013 s⁻¹
kon [8]: 720000 M⁻¹ s⁻¹
Kd [12]: 9.2 nM
koff [12]: 0.00678 s⁻¹
kon [12]: 730000 M⁻¹ s⁻¹
Kd [13]: 0.7 nM
B2: Ig-1A, humanized IgG reformatted from scFv 1A (antibody, V domains shown)
VH: QVQLVQSGAEVKQPGASVKVSCKASGYTFTGYNMYWVRQAPGQGLEWMGYIDPYNGDTTYNQKFKGRVTMTTDTSTSTAYMELRSLRSDDTAVYYCARTSYYGGMDYWGRGTLVTVAS
VL: DIVMTQTPLSSPVTLGQPASISCRSSQSLVHSNGNTYLHWLQQRPGQPPRLLIYKVSNRFSGVPDRFSGSGAGTDFTLKISRVEAEDVGVYYCSQSTHVPRTFGQGTKLEIKR
notes: IgG made in mammalian cells; also called humanized Ig-1A
